In the supplement of paper PMC10567573:

B1: KRT13 (parent)
chain: YGGGLGGGFGGGFAGGFVDFGACD

Variants of: B1
Experiment: protein stability index of a GFP-peptide fusion (GPS, HEK-293T) (PSI 1-6); higher = more stable
Details: c terminus: a fixed tail appended
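Further: lentivirally expressed fusions sorted by FACS into six bins by GFP to DsRed ratio, PSI derived from sequencing read proportions per bin multiplied by bin number.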

Row | Variant | protein stability index
1 | YGGGLGGGFGGGFAGGFVDGGACD | 1.75
2 | YGGGLGGGFGGGFAGGFVDYGACD | 1.5
3 | YGGGLGGGFGGGFAGGFVDKGACD | 2.11
4 | YGGGLGGGFGGGFAGGFVDNGACD | 2.31
5 | YGGGIGGGFGGGFAGGFVDFGACD | 2.27
6 | YGGGQGGGFGGGFAGGFVDFGACD | 2.02
7 | YGGGMGGGFGGGFAGGFVDFGACD | 1.93
8 | YGGGKGGGFGGGFAGGFVDFGACD | 1.51
9 | YGGGCGGGFGGGFAGGFVDFGACD | 1
10 | YGGGRGGGFGGGFAGGFVDFGACD | 2.62
11 | YGGGGGGGFGGGFAGGFVDFGACD | 1.87
12 | YGGGDGGGFGGGFAGGFVDFGACD | 2.04
13 | YGGGYGGGFGGGFAGGFVDFGACD | 2.79
14 | YGGGLGGGFGGGFAGGTVDFGACD | 1.77
15 | YGGGLGGGFGGGFAGGKVDFGACD | 1.96
16 | YGGGLGGGFGGGFAGGCVDFGACD | 2.18
17 | YGGGLGGGFGGGFAGGLVDFGACD | 1.09
18 | YGGGLGGGFGGGFAGGRVDFGACD | 1.57
19 | YGGDLGGGFGGGFAGGFVDFGACD | 2.52
20 | YGGTLGGGFGGGFAGGFVDFGACD | 1.87
21 | YGGQLGGGFGGGFAGGFVDFGACD | 1.68
22 | YGGALGGGFGGGFAGGFVDFGACD | 1.89
23 | YGGRLGGGFGGGFAGGFVDFGACD | 2.02
24 | YGGELGGGFGGGFAGGFVDFGACD | 1.95

Row | Variant | protein stability index
25 | YGGVLGGGFGGGFAGGFVDFGACD | 1.55
26 | YGGNLGGGFGGGFAGGFVDFGACD | 1.8
27 | YGGLLGGGFGGGFAGGFVDFGACD | 2.14
28 | YGGWLGGGFGGGFAGGFVDFGACD | 2.33
29 | YGGGLGGGFGGGFAGGFVDFGAVD | 1.22
30 | YGGGLGGGFGGGFAGGFVDFGAGD | 1.83
31 | YGGGLGGGFGGGFAGGFVDFGAED | 2.14
32 | YGGGLGGGFGGGFAGGFVDFGAMD | 1.49
33 | YGGGLGGGFGGGFAGGFVDFGADD | 1.31
34 | YGGGLGGGFGGGFAGGFVDFGASD | 1.92
35 | YGGGLGGGFGGGFAGGFVDFGAHD | 2.2
36 | YGGGLGGGFGGGFAGGFVDFGAID | 1.53
37 | YGGGLGGGFGGGFAGGFVDFGATD | 1.81
38 | YGGGLGGGFGGGFAGGFVDFGAYD | 1.6
39 | YGGGLGGGFGGGFAGGFVDFGAAD | 3.97
40 | YGGGLGGGFGGGFAGGFVDFGALD | 1.72
41 | YGGGLGGGFGGSFAGGFVDFGACD | 1.77
42 | YGGGLGGGFGGPFAGGFVDFGACD | 2.17
43 | YGGGLGGGFGGFFAGGFVDFGACD | 3.05
44 | YGGGLGGGFGGVFAGGFVDFGACD | 2.42
45 | YGGGLGGGFGGMFAGGFVDFGACD | 2.92
46 | YGGGLGGGFGGLFAGGFVDFGACD | 2.25
47 | YGGGLGGGFGGKFAGGFVDFGACD | 1.69
48 | YGGGLGGGFGGDFAGGFVDFGACD | 2.22

Row | Variant | protein stability index
49 | YGGGLGGGHGGGFAGGFVDFGACD | 2.5
50 | YGGGLGGGIGGGFAGGFVDFGACD | 1.49
51 | YGGGLGGGRGGGFAGGFVDFGACD | 1.69
52 | YGGGLGGGSGGGFAGGFVDFGACD | 1.85
53 | YGGGLGGGGGGGFAGGFVDFGACD | 1.87
54 | YGGGLGGGFGGGFAGHFVDFGACD | 1.4
55 | YGGGLGGGFGGGFAGWFVDFGACD | 3.21
56 | YGGGLGGGFGGGFAGTFVDFGACD | 2.02
57 | YGGGLGGGFGGGFAGKFVDFGACD | 1.53
58 | YGGGLGGGFGGGFAGNFVDFGACD | 1.71
59 | YGGGLGGGFGGGFAGVFVDFGACD | 1.87
60 | YGGGLGGGFGTGFAGGFVDFGACD | 1.84
61 | YGGGLGGGFGIGFAGGFVDFGACD | 3.54
62 | YGGGLGGGFGLGFAGGFVDFGACD | 3.08
63 | YGGGLGGGFGNGFAGGFVDFGACD | 2.43
64 | YGGGLGGGFGKGFAGGFVDFGACD | 1.97
65 | YGGGLGGGFGPGFAGGFVDFGACD | 2.25
66 | YGGGLGGGFGHGFAGGFVDFGACD | 1.75
67 | YGGGLGGGFGGGNAGGFVDFGACD | 1.79
68 | YGGGLGGGFGGGAAGGFVDFGACD | 1.55
69 | YGGGLGGGFGGGYAGGFVDFGACD | 2.39
70 | YGGGLGGGFGGGLAGGFVDFGACD | 1.28
71 | YGGGLGGGFGGGDAGGFVDFGACD | 2.1
72 | YGGGLGGGFGGGMAGGFVDFGACD | 2.28

Row | Variant | protein stability index
73 | YGGGLGGGFGGGKAGGFVDFGACD | 2.25
74 | YGGGLGGGFGGGSAGGFVDFGACD | 2.16
75 | YGGGLGGGFGGGQAGGFVDFGACD | 2.8
76 | YGGGLGGGFGGGFAGGFVDFWACD | 1.99
77 | YGGGLGGGFGGGFAGGFVDFYACD | 3.5
78 | YGGGLGGGFGGGFAGGFVDFPACD | 1.67
79 | YGGGLGGGFGGGFAGGFVDFIACD | 1.99
80 | YGGGLGGGFGGGFAGGFVDFEACD | 1.88
81 | YGGGLGGGFGGGFAGGFVDFKACD | 1.93
82 | YGGGLGGGFGGGFAGGFVDFAACD | 2.25
83 | YGGGLGGGFGGGFAGGFVDFMACD | 2.21
84 | YGGGLGGGFGGGFAGGFVDFVACD | 1.6
85 | YGGGLGGGFGGGFAGGFVDFSACD | 2.02
86 | YGTGLGGGFGGGFAGGFVDFGACD | 2.3
87 | YGEGLGGGFGGGFAGGFVDFGACD | 2.33
88 | YGYGLGGGFGGGFAGGFVDFGACD | 1.21
89 | YGNGLGGGFGGGFAGGFVDFGACD | 2.2
90 | YGAGLGGGFGGGFAGGFVDFGACD | 1.77
91 | YGQGLGGGFGGGFAGGFVDFGACD | 2.5
92 | YGLGLGGGFGGGFAGGFVDFGACD | 1.58
93 | YGHGLGGGFGGGFAGGFVDFGACD | 1.9
94 | YGMGLGGGFGGGFAGGFVDFGACD | 2.51
